Experimental data reported in patent US8367615B2, “Stimulation of neuron regeneration by secretory leukocyte protease inhibitor” (Research Foundation of City University of New York, priority 2006, dated 2013).

B1: secretory leukocyte protease inhibitor (protein, UniProt P03973 26-132, looked up)
Antileukoproteinase: SGKSFKAGVCPPKKSAQCLRYKKPECQSDWQCPGKKRCCPDTCGIKCLDPVDTPNPTRRKPGKCPVTYGQCLMLNPPNFCEMDGQCKRDLKCCMGMCGKSCVSPVKA

Experiments:
DRG neurons = assay: Microarray analysis of gene expression in DRG neurons; format: cell-based; conditions: DRG neurons that received dbcAMP
Description: The effects of cAMP were the result of its ability to induce gene transcription.

older neurons = conditions: cAMP levels elevated by treatment, previously established (WO 01/85981); cited from earlier work
[1] = tested on: transected nerve fibers in the spinal cord; conditions: in vivo injection; previously established (WO 01/85981); cited from earlier work
[2] = tested on: dorsal root ganglia (DRG) neurons; assay: Neurite outgrowth of DRG neurons on MAG-expressing CHO cell monolayers; format: cell-based, rat
Procedure: FIGS. 1A and 1B are a panel of four photographs and a bar graph, respectively, showing that SLPI reverses inhibition by MAG for dorsal root ganglia (“DRG”) neurons. DRG neurons from post-natal day 6 rats were treated with 2, 5, or 10 μg/ml SLPI, plated onto monolayers of either control or MAG-expressing Chinese hamster ovary (“CHO”) cells, and incubated for 16 hours. Neurons were stained for βIII tubulin and neurite length was quantified using the METAMORPH image analysis software. Data are presented ±SEM.

cortical neurons = assay: Neurite outgrowth of cortical neurons on central nervous system myelin; format: cell-based; conditions: 5 and 10 μg/ml, post-natal day 1 rat cortical neurons on CNS myelin
Procedure: FIGS. 2A and 2B are a panel of four photographs and a bar graph, respectively, showing that SLPI enhances neurite outgrowth on myelin for cortical neurons. Cortical neurons from post-natal day 1 rats were treated with 1 mM dibutyrl cAMP (dbcAMP) and 5 or 10 μg/ml SLPI, and plated onto 8-well chamber slides coated with central nervous system myelin (1 μg per well). Neurons were incubated for 24 hours and immunostained for βIII tubulin. The bar graph depicts average neurite length ±SEM.
Unlike DRG neurons, cortical neurons were inhibited by MAG and myelin at post-natal day 1.

adult DRG neurons = assay: In vivo intrathecal delivery, then neurite outgrowth of adult DRG neurons on MAG-expressing CHO cells; set-up: species or system rat; conditions: 2 and 5 μg/kg/hr intrathecal for 24 hours in adult rats, neurons plated on MAG-expressing CHO cells
Procedure: FIGS. 3A and 3B are a panel of four photographs and a bar graph, respectively, showing that in vivo delivery of SLPI overcomes MAG inhibition for adult DRG neurons. DRG neurons from adult rats that received infusion of 1, 2, or 5 μg/kg/hr SLPI into the spinal cord for 24 hours were plated onto control or MAG-expressing CHO cells. Neurons were incubated for 16 hours and stained for βIII tubulin. The bar graph depicts average neurite length ±SEM.
SLPI was delivered to the spinal cord by a pump.

optic nerve = assay: Optic nerve crush, GAP-43 staining of regenerating axons; format: in vivo, rat; conditions: single intravitreal injection of 10 micrograms after optic nerve crush; two weeks; adult male Fischer rats
Procedure: SLPI's ability to promote axonal regeneration in vivo in the optic nerve was investigated. Adult male Fischer rats (200-300 g, Charles River Laboratories) were anesthetized with isofluorane and placed in a stereotaxic frame. Optic nerve crush was performed as follows. The right optic nerve was exposed and the meninges were removed. The nerve was then crushed for 10 seconds with fine forceps at a distance of 2 mm behind the eye. Special care was taken to avoid injury to the opthalmic artery. After closing the incision, the animal received a single intravitreal injection of either 5 microliters sterile saline or 10 micrograms of recombinant human SLPI (R&D Systems; 2 micrograms/microliter in 5 microliters sterile saline) in the right eye. After a two-week post-surgical survival period, the animals were sacrificed by transcardial perfusion with 4% paraformaldehyde and the optic nerves were dissected. Nerves were sectioned at a thickness of 20 microns and thaw-mounted onto gelatin-coated slides. Sections were immunostained for GAP-43 using a polyclonal sheep anti-GAP-43 antibody diluted 1:1000 in a solution of 5% rabbit serum, 2% BSA, and 0.1% Tween in Tris-buffered saline (TBS). […] Slides were coverslipped with Permafluor mounting medium (Thermo) and viewed under fluorescence. […]

[3] = Tolerability on administration to live animals; format: in vivo

Molecule | expression of SLPI (DRG neurons) | inhibition by MAG and myelin of nerve fiber growth (older neurons) | regeneration of transected nerve fibers in the spinal cord [1] | neurite outgrowth on MAG, most effective concentrations ([2]; 5 and 10 μg/ml, post-natal day 6 rat DRG neurons on MAG-expressing CHO cells) | neurite outgrowth on MAG ([2]; post-natal day 6 rat DRG neurons treated with 2, 5 or 10 μg/ml, on MAG-expressing CHO cells, 16 hours) | neurite outgrowth on myelin, effect compared with 1 mM dbcAMP (cortical neurons) | neurite outgrowth on myelin (cortical neurons; 24 hours) | MAG inhibition of DRG neurons after intrathecal delivery (adult DRG neurons) | neurite outgrowth after intrathecal delivery (adult DRG neurons; 16 hours) | GAP-43 positive axons in the crushed optic nerve (optic nerve) | axons extending beyond the lesion site (optic nerve) | toxicity when administered to live animals [3]
CCCC(=O)Nc1ncnc2c1ncn2[C@@H]1O[C@@H]2COP(=O)(O)O[C@H]2[C@H]1OC(=O)CCC [dbcAMP, dibutyrl cAMP] | greatly increased | inhibition was reversed | led to regeneration | – | – | – | – | – | – | – | – | –
B1 | – | – | – | most extensive growth | significantly increased | equivalent to that seen with dibutyryl AMP (dbcAMP) | significantly increased | blocks MAG inhibition | significant increases | numerous GAP-43 positive axons | several of them extend beyond the lesion site | non-toxic
